Laboratory results as given in the supplement of paper PMC9233669.
Fewer inactive variants are shown than the library holds.

Legend:
biotinyl-Phe-oxazolone = assay: self-aminoacylation, catalytic enhancement (BFO) (fold over background); higher = more active; k-Seq, kA / k0A0; sequences stand for … in GGGAAUGGAUCCACAUCUACGAAUUC…UUCACUGCAGACUUGACGAAGCUG
How it was run: (§1)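 Catalytic enhancement equals the median kA over the uncatalyzed rate, the latter read from the low-activity peak of a bimodal Gaussian fit. Values of kA came from fitting each sequence's fraction reacted to a pseudo-first-order model, with 1000 bootstraps. Reacted RNA was captured with streptavidin and quantified by triplicate qPCR and Illumina sequencing after 90 minutes at room temperature with 2–1250 μM biotinyl-aminoacyl-oxazolone and 0.43 μM mutagenized RNA pools bearing a 21-nt variable region.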

biotinyl-Ile-oxazolone = assay: self-aminoacylation, catalytic enhancement (BIO) (fold over background); higher = more active; k-Seq, kA / k0A0; sequences stand for … in GGGAAUGGAUCCACAUCUACGAAUUC…UUCACUGCAGACUUGACGAAGCUG
How it was run: as §1

biotinyl-Met-oxazolone = assay: self-aminoacylation, catalytic enhancement (BMO) (fold over background); higher = more active; k-Seq, kA / k0A0; sequences stand for … in GGGAAUGGAUCCACAUCUACGAAUUC…UUCACUGCAGACUUGACGAAGCUG
How it was run: as §1

biotinyl-Val-oxazolone = assay: self-aminoacylation, catalytic enhancement (BVO) (fold over background); higher = more active; k-Seq, kA / k0A0; sequences stand for … in GGGAAUGGAUCCACAUCUACGAAUUC…UUCACUGCAGACUUGACGAAGCUG
How it was run: as §1

biotinyl-Leu-oxazolone = assay: self-aminoacylation, catalytic enhancement (BLO) (fold over background); higher = more active; k-Seq, kA / k0A0; sequences stand for … in GGGAAUGGAUCCACAUCUACGAAUUC…UUCACUGCAGACUUGACGAAGCUG
How it was run: as §1

biotinyl-Trp-oxazolone = assay: self-aminoacylation, catalytic enhancement (BWO) (fold over background); higher = more active; k-Seq, kA / k0A0; sequences stand for … in GGGAAUGGAUCCACAUCUACGAAUUC…UUCACUGCAGACUUGACGAAGCUG
How it was run: as §1

Sequence | self-aminoacylation (biotinyl-Phe-oxazolone) | self-aminoacylation (biotinyl-Ile-oxazolone) | self-aminoacylation (biotinyl-Met-oxazolone) | self-aminoacylation (biotinyl-Val-oxazolone) | self-aminoacylation (biotinyl-Leu-oxazolone) | self-aminoacylation (biotinyl-Trp-oxazolone)
AUUCACCUUGGUCAUCGGGAG [Fam2.2 aminoacylation ribozyme variant] | 0.73 | 1.07 | 1.05 | 1.05 | 1.09 | 1.27
AUUUCCCUGAUCAUCGAGUGA [Fam2.1 aminoacylation ribozyme variant] | 18.5 | 3 | 6.25 | 3.27 | 5.98 | 7.61
AUUCACCUAGGUAAACGGGUG [Fam2.2 aminoacylation ribozyme variant] | 22.9 | 1.97 | 3.77 | 2.27 | 4.47 | 3.84
CUACUCCAAACAAUCGGUCUC [Fam1A.1 aminoacylation ribozyme variant] | 2.41 | 0.71 | 0.753 | 0.723 | 0.513 | 1.34
AAGUUAGCUAAUAGCCGCAAG [Fam3.1 aminoacylation ribozyme variant] | 1.96 | 1.88 | 0.903 | 1.6 | 1.44 | 2.02
AUUCACCUAGUUCAUCGUGUG [Fam2.2 aminoacylation ribozyme variant] | 4.05 | 0.937 | 1.2 | 1.11 | 1.25 | 1.1
CCACAAUUCAAGCACUCGGUC [Fam1B.1 aminoacylation ribozyme variant] | 0.706 | 1.4 | 1.17 | 1.18 | 1.24 | 0.787
CGACACUUCAAGCAAUCGGAC [Fam1B.1 aminoacylation ribozyme variant] | 1.21 | 1.67 | 1.74 | 1.31 | 1.57 | 1.31
AAGUUUGCUAGGAGUCGCAAG [Fam3.1 aminoacylation ribozyme variant] | 0.649 | 0.788 | 0.673 | 0.745 | 0.459 | 1.02
CCACACUUAAACCAAUCGGUC [Fam1B.1 aminoacylation ribozyme variant] | 1.19 | 0.938 | 0.615 | 0.756 | 0.572 | 0.722
CCACACUUCAAACAAUCAGUC [Fam1B.1 aminoacylation ribozyme variant] | 42.2 | 0.947 | 0.771 | 1.06 | 1.16 | 12.4
GUUACCCUGGUCAUCGGGUGA [Fam2.1 aminoacylation ribozyme variant] | 503 | 30.9 | 89.7 | 36.7 | 92.1 | 90.7
UGGUUUGCUAAUAGUCGCAAG [Fam3.1 aminoacylation ribozyme variant] | 8.93 | 1.81 | 1.88 | 1.51 | 1.58 | 4.47
AUUACGCUGGCCAUCGAGUGA [Fam2.1 aminoacylation ribozyme variant] | 32.4 | 4.5 | 6.9 | 4.76 | 5.89 | 8.46
AUUCACCUAGGUCAUCGUAUG [Fam2.2 aminoacylation ribozyme variant] | 0.528 | 0.593 | 0.503 | 0.737 | 0.553 | 0.207
UUUACCCUGGUCAUCCAGUGA [Fam2.1 aminoacylation ribozyme variant] | 15.7 | 3.12 | 4.91 | 2.98 | 4.72 | 6.23
AUGUUUGCUAAAAGUCGCAAG [Fam3.1 aminoacylation ribozyme variant] | 4.95 | 1.56 | 1.69 | 1.47 | 1.83 | 2.45
AUUCGCCUAGGUCAUCGGGUA [Fam2.2 aminoacylation ribozyme variant] | 391 | 25.1 | 46.9 | 23.4 | 68.8 | 35.3
AUUACCCUGGUCAUCGAAUGU [Fam2.1 aminoacylation ribozyme variant] | 0.64 | 0.894 | 0.925 | 0.788 | 1.06 | 0.653
AUUCAUCUAGGUUAUCGGGUG [Fam2.2 aminoacylation ribozyme variant] | 28.8 | 2.37 | 3.02 | 2.44 | 3.86 | 3.36
CUUACACUGGUCAUCGAGUGA [Fam2.1 aminoacylation ribozyme variant] | 10.2 | 2.65 | 4.19 | 2.69 | 4.41 | 4.94
CUACUUUAAACAAUCGGUCGG [Fam1A.1 aminoacylation ribozyme variant] | 0.521 | 0.945 | 1.08 | 0.911 | 0.963 | 0.769
AUUACGCUGGUCAUCCAGUGA [Fam2.1 aminoacylation ribozyme variant] | 12.8 | 2.27 | 3.63 | 1.96 | 3.99 | 4.31
UUUACUCUGGUCAUCGAGUGA [Fam2.1 aminoacylation ribozyme variant] | 7.42 | 3.99 | 5.53 | 3.58 | 5.43 | 6.74
GAGUUUGCUAUUAGUCGCAAG [Fam3.1 aminoacylation ribozyme variant] | 2.47 | 1.18 | 1.17 | 1.01 | 1.28 | 1.72
AUUACCCUGUUCAUCGCGUGA [Fam2.1 aminoacylation ribozyme variant] | 171 | 9.25 | 23.5 | 11.7 | 25.1 | 25.5

Sequence | self-aminoacylation (biotinyl-Phe-oxazolone) | self-aminoacylation (biotinyl-Ile-oxazolone) | self-aminoacylation (biotinyl-Met-oxazolone) | self-aminoacylation (biotinyl-Val-oxazolone) | self-aminoacylation (biotinyl-Leu-oxazolone) | self-aminoacylation (biotinyl-Trp-oxazolone)
AAGUUGGCUAAUAGUCGCAGG [Fam3.1 aminoacylation ribozyme variant] | 3.81 | 1.59 | 1.6 | 1.34 | 1.97 | 1.23
AUUCACCUUGGUUAUCGGGUG [Fam2.2 aminoacylation ribozyme variant] | 35.2 | 3.26 | 5.13 | 3.85 | 5.92 | 5.27
AUUCAACCAGGUCAUCGGGUG [Fam2.2 aminoacylation ribozyme variant] | 58.9 | 4.64 | 5.83 | 4.22 | 7.64 | 6.24
AUUACUCCGGUCAUCGAGUGA [Fam2.1 aminoacylation ribozyme variant] | 16 | 2.81 | 5.22 | 2.64 | 5.43 | 5.76
CUACCUCAAACAAGCGGUCUG [Fam1A.1 aminoacylation ribozyme variant] | 5.07 | 1.25 | 1.57 | 0.97 | 0.828 | 1.11
CUUACCCUGGUCAUCGCGUGA [Fam2.1 aminoacylation ribozyme variant] | 148 | 7.79 | 18.7 | 10.9 | 18.9 | 18.5
UUUCACCUAGGCCAUCGGGUG [Fam2.2 aminoacylation ribozyme variant] | 20.8 | 3.27 | 3.71 | 4 | 4.34 | 4.57
AUUACCCUGGUAAUCGAGGGA [Fam2.1 aminoacylation ribozyme variant] | 0.55 | 1.1 | 0.924 | 1.04 | 0.931 | 0.832
AUUCACCUAGGUCAUCGGCCG [Fam2.2 aminoacylation ribozyme variant] | 16.6 | 3.35 | 4.04 | 3.45 | 4.25 | 5.29
AUCAUCCUGGUCAUCGAGUGA [Fam2.1 aminoacylation ribozyme variant] | 36.4 | 4.91 | 9.33 | 4.82 | 10.1 | 10.5
AUUACCCUGGUCCUCGCGUGA [Fam2.1 aminoacylation ribozyme variant] | 87.3 | 5.45 | 11 | 7.66 | 15.1 | 13.8
AAGUUUGCCAAUAGUCGGAAG [Fam3.1 aminoacylation ribozyme variant] | 1.28 | 1.14 | 0.781 | 0.968 | 0.941 | 0.79
AUUCCCCUAAGUCAUCGGGUG [Fam2.2 aminoacylation ribozyme variant] | 498 | 38.6 | 59.1 | 37.9 | 85.8 | 62.2
GUACUUCAAACAAUCGGGCUG [Fam1A.1 aminoacylation ribozyme variant] | 21.1 | 3.02 | 2.47 | 2.8 | 2.67 | 14.6
CAACUUCAAACAAUCGGACUG [Fam1A.1 aminoacylation ribozyme variant] | 19.2 | 1.26 | 0.952 | 0.945 | 1.41 | 10.6
ACUCACCUAGGUCAACGGGUG [Fam2.2 aminoacylation ribozyme variant] | 8.54 | 1.94 | 2.67 | 2.22 | 2.29 | 3.14
AUUCACCUAGGUAAUCGGUUG [Fam2.2 aminoacylation ribozyme variant] | 0.536 | 0.71 | 0.735 | 0.687 | 0.91 | 0.967
CCACACAUCAAGCCAUCGGUC [Fam1B.1 aminoacylation ribozyme variant] | 1.07 | 1.19 | 1.04 | 1.27 | 1.01 | 0.895
GUUACCCUGGUCGUCGAGUGA [Fam2.1 aminoacylation ribozyme variant] | 9.01 | 1.5 | 2.13 | 1.6 | 1.9 | 2.24
AUUACGCUGGACAUCGAGUGA [Fam2.1 aminoacylation ribozyme variant] | 16.1 | 2.63 | 4.42 | 2.98 | 4.51 | 4.65
CCGCACUUCAAGUAAUCGGUC [Fam1B.1 aminoacylation ribozyme variant] | 15.6 | 1.3 | 1.4 | 1.37 | 1.54 | 14.5
AAGUUUGCUAAUAGUCACAAU [Fam3.1 aminoacylation ribozyme variant] | 1.14 | 1.18 | 1.18 | 1.19 | 0.82 | 1.11
CCACACUGCAAGCAAUCGGUU [Fam1B.1 aminoacylation ribozyme variant] | 5.76 | 1.77 | 2.17 | 1.73 | 1.63 | 1.76
AUAACCCUGGUCAUAGAGUGA [Fam2.1 aminoacylation ribozyme variant] | 49 | 3.62 | 8.34 | 3.61 | 8.65 | 9.78
AAGUUUACAAAUAGUCGCAAG [Fam3.1 aminoacylation ribozyme variant] | 2.51 | 1.92 | 1.51 | 1.66 | 1.8 | 1.98
